The DeepSol protein solubility set

test: soluble on expression in E. coli; label from the status in PepcDB or PDB records

Sequence | soluble on expression in E. coli
MSGVASGKTAIKSTAKVLSFVVQKHWATRLHYDFRLELEGTMKSWAVPKGPSFDPNDKRMAVHVEDHPISYNSFEGEIPSGQYGAGKVIIWDKGTWIPLEDPHKGYRDGKLKFELRGLKLKGHWALVRMRKEENKKQEPWLLIKEKDEYVRSSREYSVVDEMPDSVAELEHHHHHH | not soluble
MTKSRKQKQKKQDFLRKKLKVGKPKEKARNATDTSFVSKTISIRNQHLDQNPHDLTKRLTLLKHHNINVRKETLTTFQKSIPSIIKSRLMTPLLTQSIPLICDESQQVRQGLIDLVDEIGSHDAEILKLHCNIFVLYINMAMTHIVTQIQADSTKFLSHLLKYCGDEVVRKSWVKLLNGVFGVLGWGQVGKNDSASIVQTKKRNAKYVTIHLNALYTLVEYGCQDERARSDGDTAETTEDSGTLRNPYLIPDYPQPFEHLKLFTRELKVQDATSSGVNATLLSLATQDIDTRKAVFIEQFLPIVRKKIEVIIKEGGECGKSANKLKTLLAKIFD | soluble
MRNKADNKKRNFLTHSEIESLLKAANTGPHATRNYCLILLCFIHGFRASEICRLRISDIDLKAKCIYIHRLKKGFSTTHPLLNKEVQALKNWLSIRTSYPHAESEWVFLSRKGNPLSRQQFYHIISTSGGNAGLSLEIHPHMLRYSCGFALANMGIDTRLI | not soluble
AVFRHTLLHFFERLQSNDIYYKFHNILFLKCEHTEQNAAVIAIARKHQAIWREKITAVLTEAVENQDLADDLDKETAVIFIKSTLDGLIWRWFSSCERFDLGKTAPRIIGIMMDNLENHPDLRRK | not soluble
MTVASLRGRTGTPVPKREVELRATWSSECVTRPMTEEERIKYGVAIPPKITNADGVQERRPILLPKKSKYAHVTKELVLTEFAKGKTAVQIEREQGMKPNTLYARLRAWGIRSPHSPKLRNETAAPPPSSSDTHRTDNRIDDIFWDVQIELRRAMSRFPRFNSAHEGYAVVLEELDEAWQAIKANDLIHARLGNDAGGRDGDPFPARPSDRRKGGGTATMTKAERSKSKRTATERTKLAIAPNPNRCFVLFSSTYLTAGSAIVSLNSLVRQLEKHPADHPIEDIRLDREALLMEILFVPEGGDPHAKHRSGPDQGI | not soluble
MSMSQSRAVQRSSSPNEDRGENQLVVYDLKGNDDTEEEVLPVQSQPLSSRTQCPSIGAFTVQCASCFKWRLMPSMQKYEEIREQLLENPFFCDTAREWKPDISCDVPADIYQDGTRLWAIDKPNISRPPAGWQRLLRIRGEGGTRFADVYYVAPSGKKLRSTVEVQKYLNDNSEYIGEGVKLSQFSFQIPKPLQDDYVRKRPARLLDSIDNTNTPVAKEANPLAWISPDDHISLQLGTPTESGLNNSHYQPSKKKKTSTLSIFGSNDELADR | soluble
MAAAAAAKIAPSMLSSDFANLAAEADRMVRLGADWLHMDIMDGHFVPNLTIGAPVIQSLRKHTKAYLDCHLMVTNPSDYVEPLAKAGASGFTFHIEVSRDNWQELIQSIKAKGMRPGVSLRPGTPVEEVFPLVEAENPVELVLVMTVEPGFGGQKFMPEMMEKVRALRKKYPSLDIEVDGGLGPSTIDVAASAGANCIVAGSSIFGAAEPGEVISALRKSVEGSQNKS | soluble
MSLRMKVFEIVKSSTENEIVRIHVELPRLKYLKDSNFEEKFNSEVEEKIKKFVNEVKGIAQEDHDKDVQHTPYEAYVSVDVRYEGKDFLSFVVYYYQFTGGAHGITFFETYNIDLKNSKVLKLYDIIKEEAEDTIKSNILKQIEQNNTDFFPDAPMNILKDDIFSREFTISKDGLIIMYPHYDLAPYASGMPEFVIPWNVIEKFLKYDILSLLKEGHHHHHH | soluble
NLSSEYVKDIYAYLRQLEAAQAVRPKYLLGREVTGNMRAILIDWLVQVQMKFRLLQETMYMTVSIIDRFMQNNSVPKKMLQLVGVTAMFIASKYEEMYPPEIGDFAFVTDNTYTKHQIRQMEMKILRALNFGLGRPLPLHFLRRASKIGEVDVEQHTLAKYLMELTMLDYDMVHFPPSQIAAGAFSLALKILDNGEWTPTLQHYLSYTEESLLPVMQHLAKNVVMVNQGLTKHMTVKNKYATSKHAKISTLPQLNSALVQDLAKAVAKV | soluble
